According to patent publication US7018812 (DUKE UNIVERSITY, dated 2006):
Bridges are numbered along the chain shown (N, C = ends). Where no end group is shown, it is not given here.

T1: V2R-β2AR chimera (human)
T1 construct: Whole receptor on HEK-293 cells; also called V2-β2AR; V2R-p2AR
T1 chain: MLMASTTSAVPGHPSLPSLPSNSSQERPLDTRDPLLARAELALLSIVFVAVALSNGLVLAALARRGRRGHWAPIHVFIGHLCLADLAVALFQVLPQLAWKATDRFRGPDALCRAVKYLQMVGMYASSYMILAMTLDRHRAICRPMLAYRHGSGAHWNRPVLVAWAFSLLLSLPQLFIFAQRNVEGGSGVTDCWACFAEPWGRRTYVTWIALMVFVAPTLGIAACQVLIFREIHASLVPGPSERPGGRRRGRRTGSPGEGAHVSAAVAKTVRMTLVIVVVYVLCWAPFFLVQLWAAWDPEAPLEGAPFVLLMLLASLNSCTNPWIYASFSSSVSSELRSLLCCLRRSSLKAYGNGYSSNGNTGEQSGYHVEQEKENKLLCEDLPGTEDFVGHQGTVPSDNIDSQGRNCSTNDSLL


What was measured:
[1] = target: β2AR-V2R chimera (Homo sapiens (Human)) (UniProt P07550); assay: cell-based or functional assay
V2R-β2AR chimera [2] = target: T1, V2R-β2AR chimera; assay: cell-based or functional assay
[3] = target: wild-type V2R receptor (vasopressin V2 receptor), HA-tagged (human) (UniProt P30518); assay: cell-based or functional assay
[4] = target: wild-type β2AR receptor (β2-adrenergic receptor), HA-tagged (Homo sapiens (Human)) (UniProt P07550); assay: cell-based or functional assay
V2R-β2AR chimera [5] = target: T1, V2R-β2AR chimera; assay: [3H]AVP binding to membrane proteins of transfected HEK-293 cells; affinity not given
Experimental: Membrane proteins (10 μg) from transfected HEK-293 cells expressing the V2R and V2R-β_2AR chimera were incubated in PBS containing 2% BSA at room temperature with increasing concentrations of [^3H] […] Binding was terminated by rapid filtration and consecutive washes with ice-cold wash buffer ([…], 50 mM Tris-HCl, pH=7.2).

[6] = scale: % of Vmax measured under Naive conditions

change in receptor phosphorylation 60 min after agonist removal (32P, immunoprecipitation) [1] [% increase] | internalized receptor recycled back to the plasma membrane 60 min after agonist removal (flow cytometry) [1] [%] | internalized receptor recycled back to the plasma membrane 60 min after agonist removal (flow cytometry) (V2R-β2AR chimera [2]) [%] | reduction in receptor phosphorylation 60 min after agonist removal (32P, immunoprecipitation) (V2R-β2AR chimera [2]) [% reduction] | internalized receptor recycled back to the plasma membrane 60 min after agonist removal (flow cytometry) [3] [%] | reduction in receptor phosphorylation 60 min after agonist removal (32P, immunoprecipitation) [3] [% decrease] | internalized receptor recycled back to the plasma membrane 60 min after agonist removal (flow cytometry) [4] [%] | reduction in receptor phosphorylation 60 min after agonist removal (32P, immunoprecipitation) [4] [% reduction] | binding result (V2R-β2AR chimera [5]) | Molecule | impairment of recovery of Vmax of adenylyl cyclase activity one hour after agonist removal (resensitization) [1] [%] | recovery of Vmax of adenylyl cyclase activity one hour after agonist removal (resensitization) (V2R-β2AR chimera [2]; [6]) | impairment of recovery of Vmax of adenylyl cyclase activity one hour after agonist removal (resensitization) [3] [%] | recovery of Vmax of adenylyl cyclase activity one hour after agonist removal (resensitization) [4, 6]
12 | 11 | 89 | 67 | 23 | 3 | 65 | 48 | – | β-arrestin | 66 | 102 | 54 | 100
– | – | – | – | – | – | – | – | binds | CYFQNCPRG-NH2 (peptide, UniProt P01185 20-28, looked up, disulfide 1-6 (inferred); ends not checked; also: tritium label ([3H]AVP), place not given here, mature; only the hormone peptide stood in the assay; also called AVP; [3H]AVP) [arginine vasopressin] | – | – | – | –
